Data taken from publication PMC5934386, “Active Site Gate Dynamics Modulate the Catalytic Activity of the Ubiquitination Enzyme E2-25K” (Scientific Reports, 2018).

Molecular target: T1, Human ubiquitin (human, UniProt P0CG48 1-76)
T1 construct: ubiquitin, human; the cut product of the ubiquitin precursors; also called acceptor Ub; source: bought: BostonBiochem (lyophilized)
Assay: NMR titration; 2D 1H-15N HSQC at 600 MHz; [U-15N]-E2-25K at 417-428 uM with ubiquitin at 0, 200, 400, 560, 790 and 1600 uM in six samples; PBS buffer (20 mM sodium phosphate, 150 mM NaCl, DTT, pH 7.4); chemical shift changes fit to a 1:1 binding isotherm; kon and koff from 15N lineshape analysis of G173 (Bloch-McConnell, two site exchange)
Conditions: both partners purified

- Kd: 206 ± 30 µM
- koff: 5890 s⁻¹
- kon: 2.9e+07 M⁻¹ s⁻¹
B1: Human E2-25K (enzyme, UniProt P61086 1-200, looked up)
chain: MANIAVQRIKREFKEVLKSEETSKNQIKVDLVDENFTELRGEIAGPPDTPYEGGRYQLEIKIPETYPFNPPKVRFITKIWHPNISSVTGAICLDILKDQWAAAMTLRTVLLSLQALLAAAEPDDPQDAVVANQYKQNPEMFKQTARLWAHVYAGAPVSSPEYTKKIENLCAMGFDRNAVIVALSSKSWDVETATELLLSN
notes: E2-25K (ubiquitin-conjugating enzyme, UBC core domain and UBA domain), human; called 'intact human E2-25K' in the results; cloned into pHis-parallel1; [U-15N]-labelled for the NMR titration; also called wildtype E2-25K; intact human E2-25K; source: E. coli BL21(DE3)-RIPL, purified (His-prep column, TEV cleavage, Superdex 75)
